Source: paper PMC9143740

Target: Interleukin 13 receptor subunit alpha 2 (IL-13Rα2) (human (endogenous in patient-derived HGG cell lines)) (UniProt Q14627)
Sequence of UniProt Q14627 (Q14627 27-380): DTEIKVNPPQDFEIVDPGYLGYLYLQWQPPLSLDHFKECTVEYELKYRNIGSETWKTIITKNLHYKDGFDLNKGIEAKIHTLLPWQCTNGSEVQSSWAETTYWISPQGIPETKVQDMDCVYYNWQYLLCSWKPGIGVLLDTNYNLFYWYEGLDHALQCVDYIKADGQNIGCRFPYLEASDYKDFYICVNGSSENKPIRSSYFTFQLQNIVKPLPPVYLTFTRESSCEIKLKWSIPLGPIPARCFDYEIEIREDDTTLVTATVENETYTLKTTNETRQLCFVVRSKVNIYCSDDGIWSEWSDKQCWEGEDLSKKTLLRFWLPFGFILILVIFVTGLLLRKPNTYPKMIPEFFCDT

For GB-13 (IL13.E13K-PE4E), the IC50 of cell viability (CellTiter-Glo, 72 h), PED17 cells (DMG, IL-13Rα2-high) was 0.02 ng/mL.
